The text below walks through data of US20050255547A1.

For the test, the target named is oligomerized FasL. Nature of the test: cell-based or functional assay.
Fas-COMP (receptor) came in with an inhibition of FasL-induced apoptosis of A20 cells (IC50) of 0.035 µg/mL.
For Fas-Fc (Fc fusion), the inhibition of FasL-induced apoptosis of A20 cells (IC50) is over 1 µg/mL.
As for FasR:mACRP30 (receptor), the inhibition of FasL-induced apoptosis of A20 cells (IC50) amounted to 0.08 µg/mL.
